This note sets out measurements from patent US8138307.

The target of test [1] is GAL4 activation domain-hsyt11AB fusion encoded by pGAD10-hsyt11AB (human synaptotagmin 11, domains C2A and C2B) (human) (UniProt Q9BT88). Description: yeast two-hybrid liquid assay (β-galactosidase, n=3).
Test [2] deals with GFP-syt11 (GFP fusion of full-length human synaptotagmin XI) (human) [GFP: P42212]. Description: co-immunoprecipitation with anti-HA agarose, anti-GFP blot.

Sequence of GAL4 activation domain-hsyt11AB fusion encoded by pGAD10-hsyt11AB (human synaptotagmin 11, domains C2A and C2B) (human) (Q9BT88 157-431 G231V): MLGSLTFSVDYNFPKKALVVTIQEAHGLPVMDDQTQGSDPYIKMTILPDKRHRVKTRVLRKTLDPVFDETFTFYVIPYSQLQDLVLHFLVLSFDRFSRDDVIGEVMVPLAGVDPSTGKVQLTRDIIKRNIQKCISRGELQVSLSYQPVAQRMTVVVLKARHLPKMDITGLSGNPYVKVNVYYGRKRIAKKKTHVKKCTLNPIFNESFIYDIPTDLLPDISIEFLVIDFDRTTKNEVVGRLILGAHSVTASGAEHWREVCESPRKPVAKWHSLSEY

For “GAL4 binding domain-parkin(1-465) fusion encoded by pGBT9-parkin(1-465) (from UniProt P04386 1-147; O60260 1-465)”, the fold β-galactosidase activity over pGBT9 vector control in test [1] came out at 20 fold.
Take “HA-tagged missense mutated parkin C289G (from UniProt O60260 1-465) (enzyme)”: in test [2], the fold less interaction compared with parkinC418R was found to be 2.5 fold less.
